{
  "source": "the nanobody polyreactivity screen of Harvey et al. (2022)",
  "data": [
    {"assay": "yeast display, Sf9 membrane polyspecificity reagent, FACS + sequencing; frameworks hold sequencing errors", "outline": "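Nanobodies from a synthetic yeast display library (Saccharomyces cerevisiae BJ5465), induced 36–48 hours with galactose, were stained 1 hour at 4 °C with 10% biotinylated, detergent-solubilized Sf9 membrane reagent, enriched on streptavidin microbeads, then FACS-sorted. Anti-HA (expression) and streptavidin (reagent binding) fluorescence set low and high (top ~1%) gates. Polyreactivity labels come from the gate of origin. Genes were colony-PCR amplified, MiSeq 2 × 250 sequenced and filtered by CDR length.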", "values": [
      {"sequence": "QVQLGESGGGLVQAGGSLRLSCAASGSIFKVNVMGWYRQEPGKERELVAAISRSGGNTYYADYVKGRFTISRDNAKNTVYLKMNSLKPEDTAVYYCAKDRRYYKAYDYWGQGTQVTVSS", "polyreactivity (PSR sort gate)": "low polyreactivity"},
      {"sequence": "QVQLGESGGGLVQAGGSLRLSCAASGSIFTFNTMGRYRQAPGKERELVATISSGGRTSYADSVKGRFTISRDNAKNTVYLQMNSLKPADTAVYYCNKGYYGYTYVESNYWGLGTQVTVSS", "polyreactivity (PSR sort gate)": "low polyreactivity"},
      {"sequence": "QVQLGESGGGLVQAGGSLRLSCAASGSIIQQYAIGWYRQAPGKERELVAAISWGDGSTYYADSVKGRFTISRDNAKNTVYLQKNSLKPEDTAVYYCNAYASAPLWSLEDDYWGQGTQVTVSS", "polyreactivity (PSR sort gate)": "low polyreactivity"},
      {"sequence": "QVQLGESGGGLVQAGGSLRLSCAASGSISTYYPMGWYRQATGKERELVASITSRASTNYADSVKGRFTISRDNAKNTVYLQMNSLKPEDTAGNYCNADQRDYGSYVTKLDYWGQGTQVTVSS", "polyreactivity (PSR sort gate)": "low polyreactivity"},
      {"sequence": "QVQLGESGGGLVQAGGSLRLSCAASGSTFAKYVMGWYRQAPGKERELVAAISRRGSSTYYADSVKGRFTISRDNAKNTVYLQMNSLKPEDTAVYYCNAGSFSRKARRYDYWGQGTQVTVSS", "polyreactivity (PSR sort gate)": "high polyreactivity"},
      {"sequence": "QVQLGESGGGLVQAGGSLRLSCAASGSTFNENAMGWYRQAPGKERELVAAISNDGSTTYADSVKGRFTISRDNAKNTVYLQMNSLKPEDTALYYCNAVSYIDTQSSLGDSWGQGTQVTVSS", "polyreactivity (PSR sort gate)": "low polyreactivity"},
      {"sequence": "QVQLGESGGGLVQAGGSLRLSCAASGSTFVGSAMGWYIQAPGKDRELVAAISYSGGSTYYADSVKGRFTISRDNAKNTVYLQMNSLKPEDTAVYYCAAEWSRHYYYGPRYHYWGQGTQVTVSS", "polyreactivity (PSR sort gate)": "low polyreactivity"},
      {"sequence": "QVQLGESGGGLVQAGGSLRLSCAASGSTLYPYAMGWNRQATGTERELFAAISWSGTRTYYADSVKGRFTISRDNAKNTVYLQMNSLKQEDTAVYYCAKSRTRYPSNTKYDYWGQGTQVTVSS", "polyreactivity (PSR sort gate)": "high polyreactivity"},
      {"sequence": "QVQLGESGGGLVQAGGSLRLSCADSGFTFASNAMGWYRQAPAKERELVAAISTSGGSTYYADSVKGRFTISRDNAKNTVYLQMNSLKPEDTAVYYFAVAVNGVSRIKYYYWGQGTQVTVSS", "polyreactivity (PSR sort gate)": "high polyreactivity"},
      {"sequence": "QVQLGESGGGLVQAGGSLRLSCASSGRILNINSMGWYRQAPGKERELVAAITWRGGRTFYADSVKGRFTISRDYAKNKVYFEMNSLKPEDTAVYYCAASSNTWYPTGYYWGQGSQVTVSS", "polyreactivity (PSR sort gate)": "high polyreactivity"},
      {"sequence": "QVQLGESGGGLVQAGGSLRLSGAASGRTFNDYTMGWYRPAPGKERELVAAISSSGVLTYYADSVKGRFTISRDNAKYTVYLQMNSLKPEDTAVDYAKRAGYDRRWTYDYRGQGTQVTVSS", "polyreactivity (PSR sort gate)": "high polyreactivity"},
      {"sequence": "QVQLGESGGGLVQAGGSLRLTCAASGFTFRGYAMGWYRQAPGKEWELVAANSRRGGSTYYADSVKGRFTISRDNAKYTVYLQMNSLKPEETAVYYCNAVGRFYFRFPPNNEYDYWGQGTQVTVSS", "polyreactivity (PSR sort gate)": "high polyreactivity"},
      {"sequence": "QVQLGESGGGLVQAGGSLRLTCAASGYIFISDAMGLYRQAHGKEREFVAAITGDGGSTYADSVKGRFTISRYNAKNTVYLQMNSLKPEDTAVYYCAAEGQLFDLYDYWGQGTEVTVSS", "polyreactivity (PSR sort gate)": "low polyreactivity"},
      {"sequence": "QVQLGESGGGLVQAGGSLSLSCAASGSIFRNYAMGWYRPAPGKEWELVAAITRGGPTNYADSVKGRVTISRDHAKNTVYLQMNRQKPEDTAVYYCNAAWRLGWTHWETTRYVYWGQGTHVTVSS", "polyreactivity (PSR sort gate)": "high polyreactivity"},
      {"sequence": "QVQLGESGGRLVQAGGSIRLTCAASGRTFVTYAMAWSRQAPGNEWELVAGIRPGGSTYYADSVKGRFTISRDNAKNTVYLQMNSLKPEDTAVYYCAASRTSWQGYNYWGQGTQVTVSS", "polyreactivity (PSR sort gate)": "high polyreactivity"},
      {"sequence": "QVQLGESGGRLVQAGGSLRLSCAASGRTIVINAMGWYRKEPGKERELVAAISRGGSTNYADSVKGRFTISRDNAKNTVYLQMNRLKPEDTAVYYCKADYPNWWSPFDYWGQGTQVTVSS", "polyreactivity (PSR sort gate)": "low polyreactivity"},
      {"sequence": "QVQLGETGGGLVQAGGSLRLSCAASGFNFGYYVMGWYRQAPGKERELVAAITSGGSKYYADSVKGRFTISRDNAKNTVYLQMNSLKPEDTAVYYCNKYGVVLPGFDEWGQGTQVTVSS", "polyreactivity (PSR sort gate)": "high polyreactivity"},
      {"sequence": "QVQLHESGCGLVQAGGSLRLSCAASGTISYAGPMGWYRPAPGNEREFVAGIGVGSNTNYADSVKGRYTIIRDNATNTVYLQMNSLKPEDTAVYYCAVGGYAPLGRPYWGQGTQVTVSS", "polyreactivity (PSR sort gate)": "low polyreactivity"},
      {"sequence": "QVQLHESGCVLVQAGGSLRLRCAASRNISGSSDLGWYHQAPGKEREFVASITSGGTTYYADSVKVRFTISRDNAKNTVYLQMNSLKPEDTAVYYCAVGDPADAEFGYWGQGTQVTVSS", "polyreactivity (PSR sort gate)": "low polyreactivity"},
      {"sequence": "QVQLHESGGGLCRRAAASSGAASGTISFLYYMGWYRQAPGQEREFVAGINNGTTTNYADSVKGRFTNSRDNAKNTVYLQMNSLKPEDTAVYYCAVRKPYKATTASGFEYWGQGTQVTVSS", "polyreactivity (PSR sort gate)": "high polyreactivity"},
      {"sequence": "QVQLHESGGGLVQAGGSLRLSCAASGTISYAGPIGWYRQAPGKEREFVAGIGVCSNTNYADSVKGRYTIIRDNAKNTVYLQMNSLKPEDTAVYYCAAETDSWVGGYSYASLDYWGQGTQVTVSS", "polyreactivity (PSR sort gate)": "low polyreactivity"},
      {"sequence": "QVQLHESGGGLVQAGGSLRLSCAASGTISYAGPMGWYRQAPGKEREFVAGIGVGSNTNYADSVKGRYTIIRDNAKNTVYLQMNSLKPEDTAVYYCAVGGYAPLGRPDWGQGTQVTVRS", "polyreactivity (PSR sort gate)": "low polyreactivity"},
      {"sequence": "QVQLHESGGGLVQAGGSLRLSCAASGTISYAGPMGWYRQAPGKEREFVAGIGVGSNTNYADSVKGRYTIIRDNAKNTVYLQMTSLKPEDTAVYYCAVGGYAPLGRPYWGQGTQVTVSS", "polyreactivity (PSR sort gate)": "low polyreactivity"},
      {"sequence": "QVQLHESGGGLVQARGSLRLSCAASGTSSNAGPMGWYRQAPGKEREFVAGIGVGSNTNYADSVKGRYTIIRDNAKNTVYLQMNSLKPEDTAVYYCAVGGYAPLGRPYWGQGTQVTVSS", "polyreactivity (PSR sort gate)": "low polyreactivity"},
      {"sequence": "QVQLHESGGGLVQSGGSLRLICAASGSISHYIFMGWYRQAPGKEREFVAGIGYGGTTNNADSVKGRFTISRDNAKNTVYLQMNSLKPEDTAMYYCAAREATEFYLDYWGQGTQVTVSS", "polyreactivity (PSR sort gate)": "low polyreactivity"},
      {"sequence": "QVQLHESGRGLVQAGGSLRLSCAASGTISYAGQMGWYRQAPGKEREFVAAIGVGSNTNYADIVKGRYTIIRYNAKNSVYLQIISLKPEDTAVYYCAVGCYAPLGRPFWGQGTQVTVSS", "polyreactivity (PSR sort gate)": "low polyreactivity"},
      {"sequence": "QVQLHESGVGLVQAGGGLRLSCAATGSISSTGFMGWYRQAPGKEREPVAAIAPGTTTYYADSVKGRFTISRDNAKNTVYLQMNSLRPEDTAVYYCAVFTDNRVAFLYWGQGTQVTVSS", "polyreactivity (PSR sort gate)": "low polyreactivity"},
      {"sequence": "QVQLIESGGGLVKAGGSLRLSCAASGSIFYRNTMGWYRQAPGKERELVARISWSGGRTYYADSVKGRFTISRDNAKNTVYLQMNSLKPEDTAVYYCAASTYGQRGTSYGYWGQGTQVTVSS", "polyreactivity (PSR sort gate)": "low polyreactivity"},
      {"sequence": "QVQLIESGGGLVQAGGSLRLSCAASGFTFYYNTMGWYRQAPGKERELVAAITRSVGSTYYADSVKGRFTISRDNAKNTVYLQMNSLKPEDTAVYYCAARRLGYYRKVKELDYWGQGTQVTVSS", "polyreactivity (PSR sort gate)": "high polyreactivity"},
      {"sequence": "QVQLIESGGGLVQAGGSLRLSCAASGSIFAANAMGWYRQAPGKEREFVASISYTGASTYADSVKGRFTISRDNAKNTVYLQINSLKPEDTAVYYCAKDGYWTGLDPYYYWGQGTQVTVSS", "polyreactivity (PSR sort gate)": "low polyreactivity"},
      {"sequence": "QVQLKERGGGLVQAGGSLRLSCAAIGPISRRSTMGWYRQAPGKERELVTDITRGTNTNYADSVKGRFTISRDNAKNTEYLQMNSLKPEDTAVYYCEAYGVLKPSRGDAVFHRYWGQGTQVTVSS", "polyreactivity (PSR sort gate)": "low polyreactivity"},
      {"sequence": "QVQLKESGGCLVPSRGSLRQSCAASGSISGPHVKGWYRQAPGKEREFVAAINVGANTYYADNVKGRFTISRDNANNPGYLQMNSLKPEDTAVYFCAAVYFGDIGHEYWGQGTQVTVSC", "polyreactivity (PSR sort gate)": "low polyreactivity"},
      {"sequence": "QVQLKESGGGLVQSGGSLRLSCAASGNIVDADIMGWYRQAPGKERELVASITDGGSTNYADSVKGRFTISRDNAKNTVYLQMNSLKPEDTAVYYCAAIAYPDIPTYFDYDSEYFYWGQGTQVTVSS", "polyreactivity (PSR sort gate)": "low polyreactivity"},
      {"sequence": "QVQLLDSGGGLVQAGGSLSLSCAASGSSFRYYAMGWYRPAPRKEREFVADISWSGSSTYYADSVKGRFTISRDNSKITVYLLMNSLTPEDTAVYYCAARYRYRSSSYDYWGQGTQVTVSS", "polyreactivity (PSR sort gate)": "high polyreactivity"},
      {"sequence": "QVQLLESCVGLVHAGGSLRLSCAASGFIFGTNAMGWSRQAPGKEREWVAAINGRGGGTYYADSVKGRFTISRDNAKNTVYLQMNSLKQEDTAVYYCAASRFDYWGQGTQVTVSS", "polyreactivity (PSR sort gate)": "low polyreactivity"},
      {"sequence": "QVQLLESGAGLLQAGGSLRLSCAASGRTFLKYAMGWYRQAPGKERELVAAISRGDSTYYADSVKGRFTISRDNAKNTVYLQMNSLKTEDTAVYFCAKPGYYVRYGYWGQGTQVTVSS", "polyreactivity (PSR sort gate)": "high polyreactivity"},
      {"sequence": "QVQLLESGGAIVQAGGSHRLSCAASGSIFTHYAMGWYRQATGKERELVAGITSSGGSTYADSVKGRFTISRDNAKNSVYLQMISLKPEDTAVYYCAAEQLRSRLIEYDYWGQGTQVTVSS", "polyreactivity (PSR sort gate)": "low polyreactivity"},
      {"sequence": "QVQLLESGGGIVQAGGILRLSCAASGITIGWYAMGWYRPAPGKERELVASISSSGSTNYADSVKGLFTISRDNAKNTFYLQMNSMKPEDTAVYYCNKDYLLRHYYIYVIEGDYWGQGTQVTVSS", "polyreactivity (PSR sort gate)": "low polyreactivity"},
      {"sequence": "QVQLLESGGGLFQAGGSLRLSCAASGYTFSRNAMGWYRTAPGKERELVAANTGSGGSTYYADSVKGRFTISRDNAQNTVYYQMNSLKPEDTAVYYCATEVKRGYVGFDYWGQGTQVTVSS", "polyreactivity (PSR sort gate)": "low polyreactivity"},
      {"sequence": "QVQLLESGGGLLQAGASLLLSCAASGNIFYRNAMGWYRQAPGKERELVAAISSGGITYYADSVKGRYTISRDNAKNSVSLQMNSLKPEDTAVYYCAAYIRNWRATYEYWGQGSQVTVSS", "polyreactivity (PSR sort gate)": "high polyreactivity"},
      {"sequence": "QVQLLESGGGLVQAGASLRLSCAASGSICWVYDMGWYRQAPGKERELVAAISQSGGSTYYADSVKGRFTISRDNAKNTVYFQMNSLKPEDTAGYYCAAYVRGQNYDYWGQGTQVTVSS", "polyreactivity (PSR sort gate)": "high polyreactivity"}
    ]}
  ]
}
